# Results reported in CN110498854A (UNIV ARMY MEDICAL, dated 2019).
# B1: 全人源SEB单克隆抗体M0313 (antibody, V domains shown)
# VH: EVQLVQSGGGLVQPGGSLRLSCAASGFTLSNYGMSWVRQSPGKGLEWVSGISGGSGSTCYADFVKGRFTISRDKSKNTLSLEMNSLRAEDRAVYYCAKDREYYNSGYYYFPYQYAMDVWGQGTTVTVSS
# VL: QSVLTQPPSASGTPGQRVTISCSGGRPNIGGNSVYWYQQFPGTSPKLLIYTNDQRPSGVPDRFSGSKSGTSASLAISGLRSEDEADYYCAAWDDSLSAYVFGAGTKVTVL
# Tests used:
# 金黄色葡萄球菌肠毒素B (SEB) [1] = biological target: T1, 金黄色葡萄球菌肠毒素B (SEB) (Staphylococcus aureus (ATCC BAA-1556), UniProt P01552 28-266); test: ELISA, antigen coated
# T1 sequence (P01552 28-266, tags left off): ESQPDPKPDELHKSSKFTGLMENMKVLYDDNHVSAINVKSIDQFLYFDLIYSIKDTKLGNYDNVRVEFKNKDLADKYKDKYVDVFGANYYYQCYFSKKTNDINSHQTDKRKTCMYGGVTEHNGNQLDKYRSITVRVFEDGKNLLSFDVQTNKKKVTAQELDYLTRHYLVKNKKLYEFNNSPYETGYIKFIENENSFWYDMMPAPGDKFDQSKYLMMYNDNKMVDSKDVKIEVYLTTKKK
# 金黄色葡萄球菌肠毒素B (SEB) [2] = biological target: T1, 金黄色葡萄球菌肠毒素B (SEB)
binder,measurement,setting,value
B1,EC50,金黄色葡萄球菌肠毒素B (SEB) [1],7.3 ng/mL
same,Kd,金黄色葡萄球菌肠毒素B (SEB) [2],3.22 nM
same,koff,金黄色葡萄球菌肠毒素B (SEB) [2],0.00292 s⁻¹
same,kon,金黄色葡萄球菌肠毒素B (SEB) [2],908000 M⁻¹ s⁻¹
